According to paper PMC3627602:

Molecular target: Q338H MBP–MUTYH (human)
Assay: pull-down

Binder	percent reduction of HUS1 associated, against wild-type MUTYH	percent reduction of RAD9 associated, against wild-type MUTYH	percent reduction of RAD9 bound, against wild-type MUTYH
RAD9:RAD1:HUS1 (9–1–1) complex, endogenous in HeLa nuclear extract (complex) chain 1: MKCLVTGGNVKVLGKAVHSLSRIGDELYLEPLEDGLSLRTVNSSRSAYACFLFAPLFFQQYQAATPGQDLLRCKILMKSFLSVFRSLAMLEKTVEKCCISLNGRSSRLVVQLHCKFGVRKTHNLSFQDCESLQAVFDPASCPHMLRAPARVLGEAVLPFSPALAEVTLGIGRGRRVILRSYHEEEADSTAKAMVTEMCLGEEDFQQLQAQEGVAITFCLKEFRGLLSFAESANLNLSIHFDAPGRPAIFTIKDSLLDGHFVLATLSDTDSHSQDLGSPERHQPVPQLQAHSTPHPDDFANDDIDSYMIAMETTIGNEGSRVLPSISLSPGPQPPKSPGPHSEEEDEAEPSTVPGTPPPKKFRSLFFGSILAPVRSPQGPSPVLAEDSEGEG chain 2: MPLLTQQIQDEDDQYSLVASLDNVRNLSTILKAIHFREHATCFATKNGIKVTVENAKCVQANAFIQAGIFQEFKVQEESVTFRINLTVLLDCLSIFGSSPMPGTLTALRMCYQGYGYPLMLFLEEGGVVTVCKINTQEPEETLDFDFCSTNVINKIILQSEGLREAFSELDMTSEVLQITMSPDKPYFRLSTFGNAGSSHLDYPKDSDLMEAFHCNQTQVNRYKISLLKPSTKALVLSCKVSIRTDNRGFLSLQYMIRNEDGQICFVEYYCCPDEEVPESES chain 3: MKFRAKIVDGACLNHFTRISNMIAKLAKTCTLRISPDKLNFILCDKLANGGVSMWCELEQENFFNEFQMEGVSAENNEIYLELTSENLSRALKTAQNARALKIKLTNKHFPCLTVSVELLSMSSSSRIVTHDIPIKVIPRKLWKDLQEPVVPDPDVSIYLPVLKTMKSVVEKMKNISNHLVIEANLDGELNLKIETELVCVTTHFKDLGNPPLASESTHEDRNVEHMAEVHIDIRKLLQFLAGQQVNPTKALCNIVNNKMVHFDLLHEDVSLQYFIPALS	80%	> 50%	–
purified recombinant RAD9:RAD1:HUS1 (9–1–1) complex (complex) chain 1: MKCLVTGGNVKVLGKAVHSLSRIGDELYLEPLEDGLSLRTVNSSRSAYACFLFAPLFFQQYQAATPGQDLLRCKILMKSFLSVFRSLAMLEKTVEKCCISLNGRSSRLVVQLHCKFGVRKTHNLSFQDCESLQAVFDPASCPHMLRAPARVLGEAVLPFSPALAEVTLGIGRGRRVILRSYHEEEADSTAKAMVTEMCLGEEDFQQLQAQEGVAITFCLKEFRGLLSFAESANLNLSIHFDAPGRPAIFTIKDSLLDGHFVLATLSDTDSHSQDLGSPERHQPVPQLQAHSTPHPDDFANDDIDSYMIAMETTIGNEGSRVLPSISLSPGPQPPKSPGPHSEEEDEAEPSTVPGTPPPKKFRSLFFGSILAPVRSPQGPSPVLAEDSEGEG chain 2: MPLLTQQIQDEDDQYSLVASLDNVRNLSTILKAIHFREHATCFATKNGIKVTVENAKCVQANAFIQAGIFQEFKVQEESVTFRINLTVLLDCLSIFGSSPMPGTLTALRMCYQGYGYPLMLFLEEGGVVTVCKINTQEPEETLDFDFCSTNVINKIILQSEGLREAFSELDMTSEVLQITMSPDKPYFRLSTFGNAGSSHLDYPKDSDLMEAFHCNQTQVNRYKISLLKPSTKALVLSCKVSIRTDNRGFLSLQYMIRNEDGQICFVEYYCCPDEEVPESES chain 3: MKFRAKIVDGACLNHFTRISNMIAKLAKTCTLRISPDKLNFILCDKLANGGVSMWCELEQENFFNEFQMEGVSAENNEIYLELTSENLSRALKTAQNARALKIKLTNKHFPCLTVSVELLSMSSSSRIVTHDIPIKVIPRKLWKDLQEPVVPDPDVSIYLPVLKTMKSVVEKMKNISNHLVIEANLDGELNLKIETELVCVTTHFKDLGNPPLASESTHEDRNVEHMAEVHIDIRKLLQFLAGQQVNPTKALCNIVNNKMVHFDLLHEDVSLQYFIPALS	–	–	50%
